This is an account of results in patent US12043827B2, “Compositions, systems, and methods for base diversification” (Pairwise Plants Services, Inc., priority 2020, dated 2024).

Format in all cases: cell-based
One data set has as its system endogenous loci. As to the kind of experiment: Transversion mutations from adenine: ABE7.10 with inosine glycosylases (fusion or in trans), HTS in HEK293T cells. The settings on record: fusion constructs and co-transfected constructs with ABE7.10, FIGS. 7A-7B and 8A-8B. The source says: The experiment was designed to generate transversion mutations from adenines by promoting inosines to undergo the same cellular DNA repair pathways that generate transversion mutations during translesion-bypass polymerization in cytosine base editing. While not wishing to be bound to any particular theory, it was hypothesized that the key step was to facilitate the glycosylation of inosines generated during adenine base editing. It was hypothesized that once glycosylated, the resulting abasic site can be a substrate for translesion-bypass repair and that this would lead to transversion mutations. Exogenous inosine glycosylases were provided along with ABE to promote inosine glycosylation.
Several inosine glycosylases were screened in HEK293T cells and it was determined whether they were capable of acting on inosines generated by ABE. If inosine is converted into an abasic site, and subsequently repaired through translesion-bypass polymerization, transversion mutations can be generated from adenines.
Five different glycosylases from various species were selected for testing. The following genes were codon-optimized and cloned into a mammalian expression vector, either as unfused gene, or as a C-terminal fusion to ABE7.10 (species source in parenthesis); hMPG (Homo sapiens) having an amino acid sequence of SEQ ID NO:84, mMPG (Mus musculus) having an amino acid sequence of SEQ ID NO:83, rMPG (Rattus norvegicus) having an amino acid sequence of SEQ ID NO:80, SpThp1 (Schizosaccharomyces pombe) having an amino acid sequence of SEQ ID NO:79, MaHDG (Methanosarcina acetivorans) having an amino acid sequence of SEQ ID NO:81, and MbHDG (Methanosarcina barkeri) having an amino acid sequence of SEQ ID NO:82. […] The HEK293T cells were transfected with a plasmid encoding gRNA targeting endogenous loci and either the fusion plasmid or a mixture of plasmids expressing ABE7.10 and the above inosine glycosylases. After 3 days, high-throughput sequencing was used to determine the editing result of targeted adenines. Mock transfection (using pUC19) was used to set baseline editing. All conditions that used ABE7.10 generated 10-20% guanine transition, as expected.

A further data set concerns the target T1, APE1 (Homo sapiens, UniProt P27695).
T1 construct: endogenous in cells; host or cells: HEK293T
As to the kind of experiment: APE1 inhibitor effect on base diversification and indels, AID or pmCDA1 fused to Cas9 nickase (D10A), HTS in HEK293T cells. The settings on record: 100 μM and 200 μM, 3 d. The method, then:
APE1 was inhibited by using CRT0044876 (Scheme 1), which is a potent and well-known APE1 inhibitor.
To ascertain whether this compound improves base diversification profile, HEK293T cells were treated with AID or pmCDA1 fused to Cas9 nickase (D10A) in the presence of CRT0044876. After 3 d, the cells were harvested and analyzed through high-throughput sequencing (HTS).

In data set [1] the test system is Sites 1-4 (SEQ ID NO:131-134). As to the kind of experiment: Fusion architecture for adenine diversifiers (ABE8.20m N- or C-terminal glycosylase fusions), HTS in HEK293T cells. The following applies: four guide RNAs, 3 days, FIG. 9. The procedure: Several glycosylase domains were fused to either the N-terminus or C-terminus of ABE8.20m (SEQ ID NO:57). For the N-terminal fusions to ABE8.20m, the deaminase was between the glycosylase domain and CRISPR-Cas effector protein, and, for the C-terminal fusions to ABE8.20m, the CRISPR-Cas effector protein was between the glycosylase domain and deaminase. Three putative inosine glycosylases were tested, which are: hMPG, a methylpurine glycosylase (MPG) from Homo sapiens (SEQ ID NO:84, UniProtKB—P29372); mMPG from Mus musculus (SEQ ID NO:83, UniProtKB—Q04841); and SpThp1, a known uracil DNA glycosylase that also has activity towards inosine, from Schizosaccharomyces pombe (SEQ ID NO:79, UniProtKB—O59825) (Alseth et al. Nucleic Acids Research 2005, 33(3) 1123-1131).
The following plasmids were transfected into HEK293T cells: a plasmid encoding ABE8.20m or a fusion protein including ABE8.20m fused to one of the above inosine glycosylases, and a plasmid encoding a guide RNA. […] Four guide RNAs were tested corresponding to the following four target nucleic acids (i.e., sites): Site 1: […] (SEQ ID NO:131), Site 2: […] (SEQ ID NO:132), Site 3: […] (SEQ ID NO:133), and Site 4: […] (SEQ ID NO:134). After three days, the editing efficiency was measured by high throughput sequencing of targeted loci.

Data set [2] concerns several genomic sites in HEK293T cells (target nucleic acid of SEQ ID NO:132). As to the kind of experiment: Deaminase screen for base diversification, MCP-deaminase recruited to Cas9 nickase (D10A), HTS in HEK293T cells. The following applies: MCP fusion recruited to Cas9 nickase (D10A) by 2xMS2 gRNA, no UGI, FIG. 4. The method, then:
They were fused to MCP (MS2 […]) at the N-terminus, and recruited towards Cas9 nickase (D10A) by using gRNA fused to 2×MS2 hairpins. They were assayed against several genomic sites in HEK293T cells. Base conversion profiles were analyzed by high-throughput sequencing and the results are shown in FIG. 4 for the target nucleic acid of SEQ ID NO:132.
AP endonuclease I (APE1) is an enzyme within the base excision repair pathway that cleaves the phosphodiester bond at the abasic site, generating a nick in the base-edited strand. […] In constructs lacking UGI, base diversification is usually accompanied with indels. For example, in all target sites described above, about 5-20% of products contain indels, which lowers the efficiency of base diversification (FIG. 5).

Data set [3] concerns Sites 1-5 (SEQ ID NO:131, 134, 133, 140, 132). As to the kind of experiment: Inosine glycosylase homolog testing, C-terminal fusions to ABE8e. The settings on record: C-terminal fusion to ABE8e, Sites 1-5, FIG. 16.

“Also recorded” adds a separate entry of the source.

T1 sequence (P27695 whole entry): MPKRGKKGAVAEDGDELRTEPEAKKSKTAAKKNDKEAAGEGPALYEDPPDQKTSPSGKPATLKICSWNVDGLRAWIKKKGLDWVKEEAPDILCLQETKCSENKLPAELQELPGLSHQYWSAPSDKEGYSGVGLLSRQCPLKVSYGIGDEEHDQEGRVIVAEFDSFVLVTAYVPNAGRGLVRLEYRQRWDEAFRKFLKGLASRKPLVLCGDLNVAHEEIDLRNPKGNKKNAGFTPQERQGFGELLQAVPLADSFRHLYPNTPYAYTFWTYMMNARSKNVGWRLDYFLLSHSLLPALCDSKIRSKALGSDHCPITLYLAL

On to “hMPG: methylpurine glycosylase from Homo sapiens, SEQ ID NO:84, UniProtKB P29372”, for which the “generation of C and T bases from adenine over background” value (“generation … over background” below) in the data set on endogenous loci was “significant amount of C and T bases over background”.
As to `O=C(O)c1cc2cccc([N+](=O)[O-])c2[nH]1` [CRT0044876], the base diversification rate entry at APE1 (FIGS. 6A and 6C) is on record as “some decrease in base diversification rate was also observed”. On APE1 (multiple target sites, FIGS. 6B and 6D), the “amount of indel generated” value is reported as “significant decrease in the amount of indel generated across multiple target sites; also recorded: reduces the rate of indel mutations”.
As for “ABE8.20m: adenine base editor, SEQ ID NO:57, without glycosylase domain”, the “A to C or T change of target adenine” value in data set [1] was “negligible A to C or T change”.
On to “APOBEC3A: cytosine deaminase fused to MCP, recruited towards Cas9 nickase (D10A) by gRNA with 2×MS2 hairpins”, for which the “conversion of C into G, T, and A within the base editing window” value in data set [2] was “robustly converts C into G, T, and A nucleotides within the base editing window”.

B1: APOBEC1: cytosine deaminase fused to MCP, recruited towards Cas9 nickase (D10A) by gRNA with 2×MS2 hairpins (protein, listed as Rattus norvegicus)
chain: SSETGPVAVDPTLRRRIEPHEFEVFFDPRELRKETCLLYEINWGGRHSIWRHTSQNTNKHVEVNFIEKFTTERYFCPNTRCSITWFLSWSPCGECSRAITEFLSRYPHVTLFIYIARLYHHADPRNRQGLRDLISSGVTIQIMTEQESGYCWRNFVNYSPSNEAHWPRYPHLWVRLYVLELYCIILGLPPCLNILRRKQPQLTFFTIALQSCHYQRLPPHILWATGLK
Consider B1, for which the “conversion of C into G, T, and A within the base editing window” value in data set [2] was “robustly converts C into G, T, and A nucleotides within the base editing window”.

B2: mMPG: methylpurine glycosylase from Mus musculus, SEQ ID NO:83, UniProtKB Q04841 (protein, listed as Mus musculus)
chain: MPARGGSARPGRGALKPVSVTLLPDTEQPPFLGRARRPGNARAGSLVTGYHEVGQMPAPLSRKIGQKKQRLADSEQQQTPKERLLSTPGLRRSIYFSSPEDHSGRLGPEFFDQPAVTLARAFLGQVLVRRLADGTELRGRIVETEAYLGPEDEAAHSRGGRQTPRNRGMFMKPGTLYVYLIYGMYFCLNVSSQGAGACVLLRALEPLEGLETMRQLRNSLRKSTVGRSLKDRELCSGPSKLCQALAIDKSFDQRDLAQDDAVWLEHGPLESSSPAVVVAAARIGIGHAGEWTQKPLRFYVQGSPWVSVVDRVAEQMDQPQQTACSEGLLIVQK
As for B2, in the data set with endogenous loci, the “generation … over background” value was “significant amount of C and T bases over background”.

B3: ClMPG: truncated MPG of Canis lupus, SEQ ID NO:87, fused to C-terminus of ABE8e (protein, listed as Canis lupus)
chain: KSHSAQLGSDFFDQPAVALARAFLGQVLVRRLDDGTELRGRIVETEAYLGPEDEAAHSRGGRQTPRNRGMFMKPGTLYVYIIYGMYFCLNVSSQGDGACVLLRALEPLGGLETMRQLRSTLRKGTTGRALKDRELCSGPSKLCQALAIDKSFDQRDLAKDRAVWLERSPPGPSEPAVVAAARVGIGHAGEWAQKPLRFYLRGSPWVSVVDRAAEQNAQA
For B3, in data set [3], the “adenine to C or T editing activity of adenine diversifiers” value (“adenine to C or T editing activity” below) is given as “displayed the highest activity”.

B4: CgMPG: truncated MPG of Cricetulus griseus, SEQ ID NO:86, fused to C-terminus of ABE8e (protein, listed as Cricetulus griseus)
chain: EDHPARLGPEFFDQPAVTLARAFLGQVLVRRLADGTELRGRIVETEAYLGPEDEAAHSRGGRQTPRNRGMFMKPGTLYVYIIYGMYFCLNVSSQGAGACVLLRALEPLEGLDTMRQLRSTLRKSTVSRTLKDRELCSGPSKLCQALAIDKSFDQRDLTQDEAVWLEHGPLATGSPAVVAAARIGIGHAGEWTQKPLRFYVQGSPWVSVVDRVAEQMCQPQQTA
Take B4: the “adenine to C or T editing activity” value in data set [3] is “displayed the highest activity”.

B5: SpThp1: uracil DNA glycosylase with activity towards inosine from Schizosaccharomyces pombe, SEQ ID NO:79 (protein)
chain: MNDIETRDTGTKNDNSSEFNLSVKSHKRKRSFDDENLELEESREETSGGILKKAKTQSFSESLERFRFAHAGSNNEYRKTDVVKNSDTDNGLLKSAVETITLENGLRNRRVNVTKKSTLKASVKKSTLKKKNEVDPALLQGVPDYICENPYAIIVGLNPGITSSLKGHAFASPSNRFWKMLNKSKLLEGNAEFTYLNDKDLPAHGLGITNLCARPSSSGADLRKEEMQDGARILYEKVKRYRPQVGLFISGKGIWEEMYKMLTGKKLPKTFVFGWQPEKFGDANVFVGISSSGRAAGYSDEKKQNLWNLFAEEVNRHREIVKHAV
modifications: Schizosaccharomyces pombe
With B5, the “generation … over background” value in the data set with endogenous loci was “significant amount of C and T bases over background”.

B6: CjMPG: truncated MPG of Callithrix jacchus, SEQ ID NO:88, fused to C-terminus of ABE8e (protein, listed as Callithrix jacchus)
chain: KGYLTRLGSEFFDQPAVTLAQAFLGQVLVRRLPNGTELRGRIVETEAYLGPEDEAAHSRGGRQTPRNRGMFMKPGTLYVYIIYGMYFCMNISSQGDGACVLLRALEPLEGLETMRQLRSTLRKGTASRVLKDRELCSGPSKLCQALAIDKSFDQRDLAQDEAIWLEHGPLEPSGPTVVAAARVGIGYAGEWSRKPLRFYVRGSPWVSVVDRVAEQDAQA
In the case of B6, in data set [3], the “adenine to C or T editing activity” value is reported as “displayed the highest activity”.
